The values that follow are results of earlier work, collected in publication PMC5840170.

For series [1], the target named is VPS4 MIT (Homo sapiens) (UniProt Q9UN37).
The next series concerns the target VPS4 (Homo sapiens) (UniProt Q9UN37).
The target of series [2] is VPS4 MIT (Homo sapiens) (UniProt Q9UN37). This is another data set of the same source.
For series [3], the target named is EAP20 (Vps25) winged helix (wH) (Homo sapiens) (UniProt Q9BRG1).
For a further series, the target named is EAP20 (Homo sapiens) (UniProt Q9BRG1).
The target in series [4] is VPS4 MIT (Homo sapiens) (UniProt Q9UN37). The source holds these as a separate data set.
In series [5] the target is CdvB wH domain (Sulfolobus acidocaldarius) (UniProt Q4J924).
Series [6] shares this target. The source holds these as a separate data set.
Series [7] deals with CdvC MIT domain (Sulfolobus acidocaldarius) (UniProt F2Z6D2).
For series [8], the target named is CdvC MIT (Sulfolobus acidocaldarius) (UniProt F2Z6D2).
The target of series [9] is CdvC MIT domain (Sulfolobus acidocaldarius) (UniProt F2Z6D2). The source holds these as a separate data set.
The target of series [10] is CdvC MIT (Sulfolobus acidocaldarius) (UniProt F2Z6D2). This is another data set of the same source.
The target of series [11] is CdvC MIT domain (Sulfolobus acidocaldarius) (UniProt F2Z6D2). The source holds these as a separate data set.
Series [12] deals with Vps4 (Saccharomyces cerevisiae) (UniProt P52917).
Series [13] concerns the target Vps4 MIT (Saccharomyces cerevisiae) (UniProt P52917).
In series [14] the target is ESCRT-III subunit (Vps2) α5 helix (Saccharomyces cerevisiae) (UniProt P36108).

Like-named read-outs stand apart in the source and are kept apart here. Where only a bound is given, the exact number is not on record here.

Sequence of CdvC MIT domain (Sulfolobus acidocaldarius) (F2Z6D2 8-76): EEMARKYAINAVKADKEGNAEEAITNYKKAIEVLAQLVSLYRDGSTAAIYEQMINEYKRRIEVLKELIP
Sequence of VPS4 MIT (Homo sapiens) (Q9UN37 1-83): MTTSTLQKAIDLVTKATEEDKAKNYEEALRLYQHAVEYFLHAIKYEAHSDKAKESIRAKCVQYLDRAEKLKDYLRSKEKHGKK
Sequence of CdvB wH domain (Sulfolobus acidocaldarius) (Q4J924 213-261): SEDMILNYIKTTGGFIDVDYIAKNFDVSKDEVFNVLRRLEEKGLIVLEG
Sequence of CdvC MIT (Sulfolobus acidocaldarius) (F2Z6D2 8-76): as the sequence (F2Z6D2 8-76) above
Sequence of CdvB2 C-terminus (Q4J8Y4 200-219): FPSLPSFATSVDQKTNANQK
Sequence of CHMP6 (Q96FZ7 2-201): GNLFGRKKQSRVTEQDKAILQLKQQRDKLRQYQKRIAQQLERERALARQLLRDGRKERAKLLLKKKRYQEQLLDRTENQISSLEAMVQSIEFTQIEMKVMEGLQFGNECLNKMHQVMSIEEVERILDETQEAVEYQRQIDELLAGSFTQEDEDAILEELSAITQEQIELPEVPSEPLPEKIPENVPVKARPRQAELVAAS
Sequence of CHMP6 (Vps20) (Q96FZ7 2-201): as above
Sequence of Vps2 (P36108 whole entry): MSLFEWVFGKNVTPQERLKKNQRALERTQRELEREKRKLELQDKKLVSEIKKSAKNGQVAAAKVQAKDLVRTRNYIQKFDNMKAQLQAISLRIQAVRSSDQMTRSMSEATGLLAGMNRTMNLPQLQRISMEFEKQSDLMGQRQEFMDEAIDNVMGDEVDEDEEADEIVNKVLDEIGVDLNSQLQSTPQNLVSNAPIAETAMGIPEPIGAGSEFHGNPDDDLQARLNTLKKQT
Sequence of CdvB1 C-terminus (Q4JBG6 195-214): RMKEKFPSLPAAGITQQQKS
Sequence of CHMP4 (Q9H444 2-224): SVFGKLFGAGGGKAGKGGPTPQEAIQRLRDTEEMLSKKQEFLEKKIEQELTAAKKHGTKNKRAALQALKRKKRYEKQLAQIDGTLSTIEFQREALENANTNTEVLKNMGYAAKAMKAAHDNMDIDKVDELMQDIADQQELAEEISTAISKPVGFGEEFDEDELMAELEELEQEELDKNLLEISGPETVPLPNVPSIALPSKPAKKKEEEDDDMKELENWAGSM
Sequence of Vps2 MIM1 (P36108 211-232): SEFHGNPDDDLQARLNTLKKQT
Sequence of ESCRT-III subunit (Vps2) α5 helix (Saccharomyces cerevisiae) (P36108 165-184): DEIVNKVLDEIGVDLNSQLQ
Sequence of EAP20 (Vps25) winged helix (wH) (Homo sapiens) (Q9BRG1 102-176): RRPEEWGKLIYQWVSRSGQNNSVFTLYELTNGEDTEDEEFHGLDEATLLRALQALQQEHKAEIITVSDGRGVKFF
Sequence of Vps4 central pore loops (P52917 whole entry, looked up): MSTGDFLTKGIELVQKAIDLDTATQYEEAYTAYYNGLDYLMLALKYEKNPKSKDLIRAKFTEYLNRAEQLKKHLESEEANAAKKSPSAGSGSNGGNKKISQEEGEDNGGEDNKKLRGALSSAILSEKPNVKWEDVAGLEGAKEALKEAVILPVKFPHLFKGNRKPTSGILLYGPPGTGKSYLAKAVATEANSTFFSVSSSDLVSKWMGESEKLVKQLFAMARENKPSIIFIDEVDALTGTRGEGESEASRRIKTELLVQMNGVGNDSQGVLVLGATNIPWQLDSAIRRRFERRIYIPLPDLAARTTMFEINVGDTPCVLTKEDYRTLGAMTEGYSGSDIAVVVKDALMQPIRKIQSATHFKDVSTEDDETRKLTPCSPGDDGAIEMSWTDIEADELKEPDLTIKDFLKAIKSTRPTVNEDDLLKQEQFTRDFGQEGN
Sequence of Vps4 (Saccharomyces cerevisiae) (P52917 whole entry): as the sequence (P52917 whole entry, looked up) above
Sequence of CdvA E3B (Q4J923 216-238): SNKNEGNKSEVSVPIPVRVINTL
Sequence of CdvB 177-261 (Q4J924 177-261): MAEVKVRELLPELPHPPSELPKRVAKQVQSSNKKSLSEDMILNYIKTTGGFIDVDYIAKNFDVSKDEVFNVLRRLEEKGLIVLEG
Sequence of CdvA E3B peptide (Q4J923 214-238): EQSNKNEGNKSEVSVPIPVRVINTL
Sequence of Vps4 MIT (Saccharomyces cerevisiae) (P52917 1-83): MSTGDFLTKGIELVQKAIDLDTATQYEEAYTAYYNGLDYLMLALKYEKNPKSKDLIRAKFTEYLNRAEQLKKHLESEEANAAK
Sequence of VPS4 (Homo sapiens) (Q9UN37 whole entry): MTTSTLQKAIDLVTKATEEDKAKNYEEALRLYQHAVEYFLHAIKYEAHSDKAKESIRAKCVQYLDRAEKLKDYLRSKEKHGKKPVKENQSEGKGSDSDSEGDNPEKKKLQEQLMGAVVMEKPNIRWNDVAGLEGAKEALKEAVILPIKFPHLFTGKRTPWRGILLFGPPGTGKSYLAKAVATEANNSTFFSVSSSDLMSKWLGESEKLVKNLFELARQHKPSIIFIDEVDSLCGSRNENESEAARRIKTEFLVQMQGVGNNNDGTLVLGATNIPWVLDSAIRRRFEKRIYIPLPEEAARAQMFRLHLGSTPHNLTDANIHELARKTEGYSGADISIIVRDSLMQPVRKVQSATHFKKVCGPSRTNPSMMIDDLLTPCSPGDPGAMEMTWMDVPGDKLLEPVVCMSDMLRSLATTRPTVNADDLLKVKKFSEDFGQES
Sequence of EAP20 (Homo sapiens) (Q9BRG1 whole entry): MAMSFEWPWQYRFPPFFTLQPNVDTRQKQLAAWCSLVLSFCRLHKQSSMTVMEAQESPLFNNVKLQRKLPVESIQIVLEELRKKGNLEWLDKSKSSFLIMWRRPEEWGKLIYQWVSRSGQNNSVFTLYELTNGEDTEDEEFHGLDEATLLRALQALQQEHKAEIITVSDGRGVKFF

Regarding CHMP1A MIM1 (from UniProt Q9HD42), the Kd with VPS4 MIT (Homo sapiens) [1] and with VPS4 (Homo sapiens) was 4.5 µM each time.

Consider CHMP4 (from UniProt Q9H444), for which the dissociation constant Kd (as a rule, a measure of binding affinity in units of concentration) with VPS4 MIT (Homo sapiens) [2] was above 100 µM.

Turning to CHMP6 (Vps20) (from UniProt Q96FZ7), in series [3], the dissociation constant (Kd) is 7 µM.

As for CHMP6 (from UniProt Q96FZ7), the equilibrium dissociation constant (Kd) with EAP20 (Homo sapiens) was 7 µM.

Consider CHMP6 MIM2 (from UniProt Q96FZ7), for which, in the series with VPS4 MIT (Homo sapiens) [4], the Kd was 30 µM.

Regarding CdvA E3B (from UniProt Q4J923), in series [5], the Kd is 6 µM.

With CdvA E3B peptide (from UniProt Q4J923), the Kd in series [6] was 6 µM.

Turning to CdvB1 C-terminus (from UniProt Q4JBG6), the equilibrium dissociation constant (Kd) in series [7] is above 100 µM.

With “CdvB1 C-terminus peptide (from UniProt Q4JBG6)”, in [8], the Kd is above 100 µM.

Regarding CdvB2 C-terminus (from UniProt Q4J8Y4), the equilibrium dissociation constant (Kd) in series [9] was above 100 µM.

For “CdvB2 C-terminus peptide (from UniProt Q4J8Y4)”, the Kd in series [10] was above 100 µM.

For CdvB 177-261 (from UniProt Q4J924), in series [11], the Kd was 30 µM.

Regarding Vps2 (from UniProt P36108), the Kd in series [12] was 30 µM.

Take Vps2 MIM1 (from UniProt P36108): in series [13], the Kd is 30 µM.

As for “Vps4 central pore loops (from UniProt P52917)”, the Kd in series [14] was 2 µM.
